Sequences and labels used below:
B1: FIXa R318Y/R338E/T343R/N346Y/R403E/E410N (protein)
chain 1: YNSGKLEEFVQGNLERECMEEKCSFEEAREVFENTERTTEFWKQYVDGDQCESNPCLNGGSCKDDINSYECWCPFGFEGKNCELDVTCNIKNGRCEQFCKNSADNKVVCSCTEGYRLAENQKSCEPAVPFPCGRVSVSQTSKLTR
chain 2: VVGGEDAKPGQFPWQVVLNGKVDAFCGGSIVNEKWIVTAAHCVETGVKITVVAGEHNIEETEHTEQKRNVIRIIPHHNYNAAINKYNHDIALLELDEPLVLNSYVTPICIADKEYTNIFLKFGSGYVSGWGRVFHKGYSALVLQYLRVPLVDRATCLESTKFRIYYNMFCAGFHEGGRDSCQGDSGGPHVTEVEGTSFLTGIISWGEECAMKGKYGIYTKVSEYVNWIKNKTKLT
B2: FIXa K247N/N249S/R318Y/R403E/E410N (protein)
chain 1: YNSGKLEEFVQGNLERECMEEKCSFEEAREVFENTERTTEFWKQYVDGDQCESNPCLNGGSCKDDINSYECWCPFGFEGKNCELDVTCNIKNGRCEQFCKNSADNKVVCSCTEGYRLAENQKSCEPAVPFPCGRVSVSQTSKLTR
chain 2: VVGGEDAKPGQFPWQVVLNGKVDAFCGGSIVNEKWIVTAAHCVETGVKITVVAGEHNIEETEHTEQNRSVIRIIPHHNYNAAINKYNHDIALLELDEPLVLNSYVTPICIADKEYTNIFLKFGSGYVSGWGRVFHKGYSALVLQYLRVPLVDRATCLRSTKFTIYNNMFCAGFHEGGRDSCQGDSGGPHVTEVEGTSFLTGIISWGEECAMKGKYGIYTKVSEYVNWIKNKTKLT
B3: FIXa Y155F/K247N/N249S/R318Y/R338E/R403E (protein)
chain 1: YNSGKLEEFVQGNLERECMEEKCSFEEAREVFENTERTTEFWKQYVDGDQCESNPCLNGGSCKDDINSYECWCPFGFEGKNCELDVTCNIKNGRCEQFCKNSADNKVVCSCTEGYRLAENQKSCEPAVPFPCGRVSVSQTSKLTR
chain 2: VVGGEDAKPGQFPWQVVLNGKVDAFCGGSIVNEKWIVTAAHCVETGVKITVVAGEHNIEETEHTEQNRSVIRIIPHHNYNAAINKYNHDIALLELDEPLVLNSYVTPICIADKEYTNIFLKFGSGYVSGWGRVFHKGYSALVLQYLRVPLVDRATCLESTKFTIYNNMFCAGFHEGGRDSCQGDSGGPHVTEVEGTSFLTGIISWGEECAMKGKYGIYTKVSEYVNWIKEKTKLT
B4: FIXa Y155F/K247N/N249S/R338E/R403E/E410N (protein)
chain 1: YNSGKLEEFVQGNLERECMEEKCSFEEAREVFENTERTTEFWKQYVDGDQCESNPCLNGGSCKDDINSYECWCPFGFEGKNCELDVTCNIKNGRCEQFCKNSADNKVVCSCTEGYRLAENQKSCEPAVPFPCGRVSVSQTSKLTR
chain 2: VVGGEDAKPGQFPWQVVLNGKVDAFCGGSIVNEKWIVTAAHCVETGVKITVVAGEHNIEETEHTEQNRSVIRIIPHHNYNAAINKYNHDIALLELDEPLVLNSYVTPICIADKEYTNIFLKFGSGYVSGWGRVFHKGRSALVLQYLRVPLVDRATCLESTKFTIYNNMFCAGFHEGGRDSCQGDSGGPHVTEVEGTSFLTGIISWGEECAMKGKYGIYTKVSEYVNWIKNKTKLT
B5: FIXa K247N/N249S/R338E/R403E/E410N (protein)
chain 1: YNSGKLEEFVQGNLERECMEEKCSFEEAREVFENTERTTEFWKQYVDGDQCESNPCLNGGSCKDDINSYECWCPFGFEGKNCELDVTCNIKNGRCEQFCKNSADNKVVCSCTEGYRLAENQKSCEPAVPFPCGRVSVSQTSKLTR
chain 2: VVGGEDAKPGQFPWQVVLNGKVDAFCGGSIVNEKWIVTAAHCVETGVKITVVAGEHNIEETEHTEQNRSVIRIIPHHNYNAAINKYNHDIALLELDEPLVLNSYVTPICIADKEYTNIFLKFGSGYVSGWGRVFHKGRSALVLQYLRVPLVDRATCLESTKFTIYNNMFCAGFHEGGRDSCQGDSGGPHVTEVEGTSFLTGIISWGEECAMKGKYGIYTKVSEYVNWIKNKTKLT
B6: FIXa K247N/N249S/R318Y/R338E/R403E (protein)
chain 1: YNSGKLEEFVQGNLERECMEEKCSFEEAREVFENTERTTEFWKQYVDGDQCESNPCLNGGSCKDDINSYECWCPFGFEGKNCELDVTCNIKNGRCEQFCKNSADNKVVCSCTEGYRLAENQKSCEPAVPFPCGRVSVSQTSKLTR
chain 2: VVGGEDAKPGQFPWQVVLNGKVDAFCGGSIVNEKWIVTAAHCVETGVKITVVAGEHNIEETEHTEQNRSVIRIIPHHNYNAAINKYNHDIALLELDEPLVLNSYVTPICIADKEYTNIFLKFGSGYVSGWGRVFHKGYSALVLQYLRVPLVDRATCLESTKFTIYNNMFCAGFHEGGRDSCQGDSGGPHVTEVEGTSFLTGIISWGEECAMKGKYGIYTKVSEYVNWIKEKTKLT
B7: FIXa Y155F/K247N/N249S/R318Y/R403E/E410N (protein)
chain 1: YNSGKLEEFVQGNLERECMEEKCSFEEAREVFENTERTTEFWKQYVDGDQCESNPCLNGGSCKDDINSYECWCPFGFEGKNCELDVTCNIKNGRCEQFCKNSADNKVVCSCTEGYRLAENQKSCEPAVPFPCGRVSVSQTSKLTR
chain 2: VVGGEDAKPGQFPWQVVLNGKVDAFCGGSIVNEKWIVTAAHCVETGVKITVVAGEHNIEETEHTEQNRSVIRIIPHHNYNAAINKYNHDIALLELDEPLVLNSYVTPICIADKEYTNIFLKFGSGYVSGWGRVFHKGYSALVLQYLRVPLVDRATCLRSTKFTIYNNMFCAGFHEGGRDSCQGDSGGPHVTEVEGTSFLTGIISWGEECAMKGKYGIYTKVSEYVNWIKNKTKLT
B8: FIXa R318Y/R338E/T343R/N346D/R403E/E410N (protein)
chain 1: YNSGKLEEFVQGNLERECMEEKCSFEEAREVFENTERTTEFWKQYVDGDQCESNPCLNGGSCKDDINSYECWCPFGFEGKNCELDVTCNIKNGRCEQFCKNSADNKVVCSCTEGYRLAENQKSCEPAVPFPCGRVSVSQTSKLTR
chain 2: VVGGEDAKPGQFPWQVVLNGKVDAFCGGSIVNEKWIVTAAHCVETGVKITVVAGEHNIEETEHTEQKRNVIRIIPHHNYNAAINKYNHDIALLELDEPLVLNSYVTPICIADKEYTNIFLKFGSGYVSGWGRVFHKGYSALVLQYLRVPLVDRATCLESTKFRIYDNMFCAGFHEGGRDSCQGDSGGPHVTEVEGTSFLTGIISWGEECAMKGKYGIYTKVSEYVNWIKNKTKLT
B9: FIXa R318Y/R338E/Y345A/R403E/E410N (protein)
chain 1: YNSGKLEEFVQGNLERECMEEKCSFEEAREVFENTERTTEFWKQYVDGDQCESNPCLNGGSCKDDINSYECWCPFGFEGKNCELDVTCNIKNGRCEQFCKNSADNKVVCSCTEGYRLAENQKSCEPAVPFPCGRVSVSQTSKLTR
chain 2: VVGGEDAKPGQFPWQVVLNGKVDAFCGGSIVNEKWIVTAAHCVETGVKITVVAGEHNIEETEHTEQKRNVIRIIPHHNYNAAINKYNHDIALLELDEPLVLNSYVTPICIADKEYTNIFLKFGSGYVSGWGRVFHKGYSALVLQYLRVPLVDRATCLESTKFTIANNMFCAGFHEGGRDSCQGDSGGPHVTEVEGTSFLTGIISWGEECAMKGKYGIYTKVSEYVNWIKNKTKLT

Consider nine proteins from US20210238260.

Chain of Factor X, P00742 (P00742 whole entry, looked up): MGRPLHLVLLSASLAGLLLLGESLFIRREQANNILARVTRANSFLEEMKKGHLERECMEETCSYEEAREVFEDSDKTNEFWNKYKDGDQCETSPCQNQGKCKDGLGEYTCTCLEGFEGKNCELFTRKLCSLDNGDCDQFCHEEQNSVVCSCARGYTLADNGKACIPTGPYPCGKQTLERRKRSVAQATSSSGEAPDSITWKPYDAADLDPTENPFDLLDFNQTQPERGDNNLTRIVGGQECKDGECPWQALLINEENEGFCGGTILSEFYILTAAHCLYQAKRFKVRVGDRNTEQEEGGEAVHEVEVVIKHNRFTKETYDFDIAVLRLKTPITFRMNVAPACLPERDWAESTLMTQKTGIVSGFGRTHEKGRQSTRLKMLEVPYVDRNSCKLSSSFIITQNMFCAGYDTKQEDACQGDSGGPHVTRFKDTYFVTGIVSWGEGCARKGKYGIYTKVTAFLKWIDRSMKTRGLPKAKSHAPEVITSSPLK

The series addresses Factor X, P00742.
As to B1, the “% of WT kcat/KM” value turned out to be 663%; the KM (FX activation by FIXa in Xase complex with FVIIIa, PC/PS vesicles, Ca2+) came out at 0.0158 µM; the kcat/KM (as a rule, the second-order rate constant that governs catalysis at low substrate concentration) is 3.1e+08 M⁻¹ s⁻¹.

In the case of B2, the KM (FX activation by FIXa in Xase complex with FVIIIa, PC/PS vesicles, Ca2+) is 0.111 µM.

Consider B3, for which the KM (FX activation by FIXa in Xase complex with FVIIIa, PC/PS vesicles, Ca2+) was 0.0673 µM.

With B4, the KM (FX activation by FIXa in Xase complex with FVIIIa, PC/PS vesicles, Ca2+) was determined as 0.0487 µM.

B5: the KM (FX activation by FIXa in Xase complex with FVIIIa, PC/PS vesicles, Ca2+) stood at 0.025 µM.

Consider B6, for which the KM (FX activation by FIXa in Xase complex with FVIIIa, PC/PS vesicles, Ca2+) was found to be 0.0536 µM.

On to B7, for which the KM (FX activation by FIXa in Xase complex with FVIIIa, PC/PS vesicles, Ca2+) stood at 0.125 µM.

As to B8, the “% of WT kcat/KM” value stood at 177%; the KM (FX activation by FIXa in Xase complex with FVIIIa, PC/PS vesicles, Ca2+) was found to be 0.067 µM; the kcat/KM was 8.2e+07 M⁻¹ s⁻¹.

For the protein B9, the “% of WT kcat/KM” value was determined as 180%; the KM (FX activation by FIXa in Xase complex with FVIIIa, PC/PS vesicles, Ca2+) worked out at 0.0188 µM; the specificity constant (kcat/KM) amounted to 8.3e+07 M⁻¹ s⁻¹.
